In US20070059806, “Nucleic acid molecules, polypeptides, antibodies and compositions containing same useful for treating and detecting influenza virus infection” (Yeda Research and Development Co., Ltd. at the Weizmann …, published 2007):

How the values were obtained:
[1] = target: Hemagglutinin on intact virus A/Port Chalmers/1/73 (H3N2) (Influenza A virus) (UniProt P03438+P03438); experiment: cell_activity
[2] = target: Influenza hemagglutinin fragment HA91-261 (globular region) (Influenza A virus (A/Port …, UniProt Q1PUD9 SEQ:1-171)); experiment: ELISA; conditions: tags: N-terminal 6xHis (pQE30, E. coli, Ni-NTA purified)
Chain of Influenza hemagglutinin fragment HA91-261 (globular region) (Influenza A virus (Q1PUD9 107-277): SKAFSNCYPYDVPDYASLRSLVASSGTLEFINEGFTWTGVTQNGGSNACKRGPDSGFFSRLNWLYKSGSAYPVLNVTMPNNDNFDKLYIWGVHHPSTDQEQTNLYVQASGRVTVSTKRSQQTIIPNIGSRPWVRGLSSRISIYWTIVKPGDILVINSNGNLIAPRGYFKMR

Molecule “AATTAACCCTCACTAAAGGGCTGAGTCTCAAAACCGCAATACACTGGTTGTATGGTCGAATAAGTTAA [A22]” has an activity [1] of 70%.

B1: A22 (ssDNA)
DNA: AATTAACCCTCACTAAAGGGCTGAGTCTCAAAACCGCAATACACTGGTTGTATGGTCGAATAAGTTAA
B1: binds [2].

B2: A21 (ssDNA)
DNA: AATTAACCCTCACTAAAGGGCGCTTATTTGTTCAGGTTGGTCTTCCTATTATGGTCGAATAAGTTAA
B2: binds [2].

AATTAACCCTCACTAAAGGG (ssDNA) [T3 primer negative control]: no binding ([2]; label: biotin).
